From US20140256912A1, “Stabilized Variant MAML Peptides and Uses Thereof” (PRESIDENT AND FELLOWS OF HARVARD COLLEGE, priority 2011, published 2014)
Bridge positions count the residues as written; N and C are the ends. Square brackets hold non-standard residues; d marks the D form. Ends that are not written are not given here. dPhe(F5) = N[C@H](Cc1c(F)c(F)c(F)c(F)c1F)C(=O)O; 1Nal = N[C@@H](Cc1cccc2ccccc12)C(=O)O; 2Nal = N[C@@H](Cc1ccc2ccccc2c1)C(=O)O; S5 = C=CCCC[C@](C)(N)C(=O)O; I_N = not defined here; βAla = NCCC(=O)O

B1: Bio-SAHM1 (biotinylated stapled MAML1 E21-T36 peptide) (peptide, UniProt Q92585 21-36, looked up)
peptide: ERLRRRI[S5]LCR[S5]HHST
modifications: staple 8-12; not fully specified (N-terminus); also: biotin label, linker not described

How the values were obtained:
[1] = molecular target: equimolar RAMANK1-CSL complex (human) (UniProt P46531); assay: SPR (Biacore 3000), peptide immobilised on a streptavidin chip, equimolar RAMANK1 and CSL injected; bio-sdnMAML1, residues 16-70
[2] = molecular target: GST-RAMANK1-CSL complex (human) (UniProt P46531); assay: ALPHAscreen, 40 nM of all partners
[3] = molecular target: GST-RAMANK1-CSL complex (human) (UniProt P46531); assay: ALPHAscreen titration matrix, binding components in the range of 10-100 nM
[4] = molecular target: equimolar RAMANK1-CSL complex (human) (UniProt P46531); assay: SPR (Biacore 3000), peptide immobilised on a streptavidin chip, equimolar RAMANK1 and CSL injected; bio-nt-sdnMAML1, residues 16-45
[5] = molecular target: equimolar RAMANK1-CSL complex (human) (UniProt P46531); assay: SPR, preformed RAMANK1-CSL complex
[6] = molecular target: GST-RAMANK1-CSL complex (human) (UniProt P46531); assay: ALPHAscreen competition against Bio-sdnMAML1 binding to GST-RAMANK1-CSL
[7] = molecular target: GST-RAMANK1-CSL complex (human) (UniProt P46531); assay: ALPHAscreen NTC competition: peptide titrated against Bio-sdnMAML1 binding to GST-RAMANK1-CSL; IC50 with 95% CI
[8] = molecular target: NOTCH1-CSL transactivation complex in U2OS cells transfected with the truncated, constitutively activated ΔEGFΔLNR-NOTCH1 allele, P46531; assay: cell-based or functional assay
[9] = molecular target: equimolar RAMANK1-CSL complex (human) (UniProt P46531); assay: SPR (Biacore 3000), peptide immobilised on a streptavidin chip, equimolar RAMANK1 and CSL injected; bio-SAHM1, stapled peptide

Molecule | IC50 [7] | also measured
synthetic, biotinylated dnMAML1 (Bio-sdnMAML1, residues 16-70) (from UniProt Q92585 16-70) (peptide) | – | Kd [1]: 0.04 µM; signal-to-noise ratio [2]: 30 fold; ALPHAscreen luminescent signal (maximum) [3]: 45000 c.p.s.
bio-nt-sdnMAML1 (residues 16-45), N-terminal helix of dnMAML1 (from UniProt Q92585 16-45) (peptide) | – | Kd [4]: 0.4 µM; fold decrease in affinity against s-dnMAML1 [5]: 10 fold
unlabeled Ac-sdnMAML1 peptide (from UniProt Q92585 16-70) | – | IC50 (read off the curve) [6]: 0.1 µM
Ac-W[βAla]ERLRRRI[S5]LCR[S5]HHSTCEARY (staple 10-14; cysteine pairing not given here) [SAHM1-24 (stapled peptide of the E21-Y41 scaffold)] | 1.12 µM | –
Ac-W[βAla]ERWRRRI[S5]WCR[S5]HHSTCEARY (staple 10-14; cysteine pairing not given here) [SAHM1-27 (E21-Y41 scaffold, L23W/L29W double mutant)] | 0.2 µM | –
Ac-W[βAla]ERWRRRI[S5]LFR[S5]HHSTCEARY (staple 10-14) [SAHM1-25 (E21-Y41 scaffold, L23W/C30F double mutant), Q92585 21-41] | – | EC50, NOTCH1-driven CSL-luciferase dual reporter in U2OS cells [8]: 10 µM; fold lower IC50 than SAHM1, NOTCH1 reporter gene assay [8]: 2 fold
Ac-W[βAla]ERWRRRL[S5]YFR[S5]HHSTCEAR[1Nal] (staple 10-14) [SAHM1-61] | 0.44 µM | –
Ac-W[βAla]ERWRRRL[S5]WCR[S5]HHST[dPhe(F5)]EARY (staple 10-14) [SAHM1-43] | 0.78 µM | –
Ac-W[βAla]ERWRRRI[S5]LFR[S5]HHSTCEARY (staple 10-14) [SAHM1-25 (E21-Y41 scaffold, L23W/C30F double mutant)] | 0.29 µM | –
Ac-W[βAla]ERWRRRI[S5]YFR[S5]HHST[dPhe(F5)]EAR[1Nal] (staple 10-14) [SAHM1-62 (E21-Y41 scaffold with L23W, L29Y, C30F, C37 D-pentafluoro-Phe and Y41 1-naphthylalanine)] | 0.32 µM | –
Ac-W[βAla]ERWRRRI[S5]YFR[S5]HHST[dPhe(F5)]EAR[1Nal] (staple 10-14) | – | EC50, NOTCH1-driven CSL-luciferase dual reporter in U2OS cells [8]: 5 µM; fold lower IC50 than SAHM1, NOTCH1 reporter gene assay [8]: 4 fold
Ac-W[βAla]ERWRRRL[S5]LFR[S5]HHST[dPhe(F5)]EARY (staple 10-14) [SAHM1-35] | 1.2 µM | –
Ac-W[βAla]ERWRRRL[S5]YCR[S5]HHST (staple 10-14) [SAHM1-47] | 0.46 µM | –
Ac-W[βAla]ERWRRRI[S5]YFR[S5]HHST (staple 10-14) [SAHM1-56 (E21-T36 scaffold with L23W, L29Y and C30F)] | 0.22 µM | –
Ac-W[βAla]ERWRRRL[S5]YCR[S5]HHSTCEARY (staple 10-14; cysteine pairing not given here) [SAHM1-59] | 0.34 µM | –
Ac-W[βAla]ELER[S5]HTF[S5]LHQR (staple 7-11) [SAHM5] | 6.5 µM | –
Ac-W[βAla]ERWRRRI[S5]YCR[S5]HHST (staple 10-14) [SAHM1-55] | 0.25 µM | –

Molecule | IC50 [7] | also measured
Ac-W[βAla]ERWRRRL[S5]YVR[S5]HHST (staple 10-14) [SAHM1-48] | 0.67 µM | –
Ac-W[βAla]ERWRRRL[S5]WFR[S5]HHST (staple 10-14) [SAHM1-39] | 0.9 µM | –
Ac-W[βAla]RELRREI[S5]LCR[S5]HHST (staple 10-14) [SAHM1-D1] | 3.7 µM | –
Ac-W[βAla]ERWRRRL[S5]LCR[S5]HHSTCEAR[1Nal] (staple 10-14; cysteine pairing not given here) [SAHM1-51] | 0.36 µM | –
Ac-W[βAla]ERWRRRL[S5]YCR[S5]HHSTCEARYEAVSPERL (staple 10-14; cysteine pairing not given here) [SAHM1-76] | 0.27 µM | –
Ac-W[βAla]ERWRRRL[S5]LCR[S5]HHSTCEAR[2Nal] (staple 10-14; cysteine pairing not given here) [SAHM1-50] | 0.41 µM | –
Ac-W[βAla]ERWRRRI[S5]FCR[S5]HHST (staple 10-14) [SAHM1-22] | 0.69 µM | –
Ac-W[βAla]ERWRRRL[S5]YVR[S5]HHSTCEARYEAVSPERL (staple 10-14) [SAHM1-80] | 0.36 µM | –
Ac-W[βAla]ERWRRRL[S5]WVR[S5]HHST (staple 10-14) [SAHM1-38] | 0.54 µM | –
B1 | – | Kd [9]: 0.1 µM
Ac-W[βAla]ERWRRRI[S5]FCR[S5]HHSTCEARY (staple 10-14; cysteine pairing not given here) [SAHM1-26] | 0.85 µM | –
Ac-W[βAla]ERLRRRI[S5]LCR[S5]HHST (staple 10-14) [AcW-SAHM1 (stapled MAML1 E21-T36 peptide with N-acetyl tryptophan cap)] | 1.7 µM | –
Ac-W[βAla]ERWRRRL[S5]WCR[S5]HHSTCEARYEAVSPERL (staple 10-14; cysteine pairing not given here) [SAHM1-81] | 0.37 µM | –
Ac-W[βAla]ERLRRRI[S5]LCR[S5]HHSTFEARY (staple 10-14) [SAHM1-28] | 0.56 µM | –
Ac-W[βAla]ERWRRRL[S5]LCR[S5]HHST[I_N]EARY (staple 10-14; reading uncertain) [SAHM1-52] | 0.61 µM | –
Ac-W[βAla]ERWRRRL[S5]YFR[S5]HHST[dPhe(F5)]EARY (staple 10-14) [SAHM1-60] | 0.45 µM | –
